{"source": "patent US20190194249A1", "about": "(NATIONAL INSTITUTE OF ADVANCED INDUSTRIAL SCIENCE AND …, published 2019)", "binders": {"B1": {"name": "Polypeptide AF.ab9 (SEQ ID NO: 8) (peptide)", "peptide": "PNSGGGGSYDPETGTWPQEIRLILNW", "notes": "Chemically synthesised; 8-residue linker + 8-residue chignolin + 10-residue selected region"}}, "target": "T1, pH 2.0-treated Fc (Fc region of human monoclonal IgG, acid-treated and neutralised) (human)", "T1 construct": "Dialysed at pH 2.0 for 12 h, then neutralised; also called acid-treated Fc region", "assay": "SPR (Biacore T100), AF.ab9 immobilised on CM5, Fc region as analyte"}
{"binder": "B1", "values": [{"measurement": "binding response relative to that on the acid-treated (non-native) Fab region", "value": "≤ 0.01", "unit": "fold"}]}
